From the Immune Epitope Database (IEDB) come the findings set out here.

Assay [1] has as its target HLA-B*15:17. The assay can be described thus: IEDB peptide-MHC binding, purified MHC/direct/fluorescence; filed as Kd, often an IC50 or EC50 that approximates it; ≥ and ≤ were set here for values at or beyond the usual limits of such assays. As to conditions: source organism: Campylobacter jejuni RM1221.
The target in a further assay is HLA-B*58:01. The assay is described as above. As to conditions: source organism: Campylobacter jejuni RM1221.
A further assay deals with HLA-C*15:02. Described as above.
Assay [2] deals with HLA-B*57:01. The description is as above. Conditions: source organism: Campylobacter jejuni RM1221.
The target of another assay is HLA-B*83:01. In words: IEDB peptide-MHC binding, purified MHC/competitive/fluorescence; filed as Kd, often an IC50 or EC50 that approximates it; ≥ and ≤ were set here for values at or beyond the usual limits of such assays.
The target of another assay is HLA-C*04:01. Described as above.
The target in another assay is HLA-B*15:42. The assay is described as above.
The target in a further assay is HLA-B*45:06. Described as above.
Another assay addresses HLA-A*02:12. The description is as above. Conditions: source organism: Escherichia coli 536.
Assay [3] deals with HLA-B*15:17. The description is as above. Conditions: source organism: Escherichia coli 536.
Another assay concerns the target HLA-B*39:01. The description is as above. Conditions: source organism: Escherichia coli 536.
A further assay addresses HLA-B*51:01. The assay is described as above.
Assay [4] has as its target HLA-A*02:01. The assay is described as above. As to conditions: source organism: Escherichia coli 536.
For assay [5], the target named is HLA-B*15:01. The assay is described as above.
The target of another assay is HLA-A*23:01. Described as above.
For the next assay, the target named is HLA-A*02:16. Described as above. Conditions: source organism: Escherichia coli 536.
The target of a further assay is HLA-A*02:03. Described as above.
Another assay concerns the target HLA-A*02:19. The assay is described as above. As to conditions: source organism: Escherichia coli 536.
Another assay addresses HLA-B*27:03. The assay is described as above. Conditions: source organism: Escherichia coli 536.
Another assay has as its target HLA-A*29:02. The description is as above. As to conditions: source organism: Escherichia coli 536.
The target of assay [6] is HLA-A*69:01. The description is as above. Conditions: source organism: Escherichia coli 536.
The next assay deals with HLA-A*24:03. The assay is described as above. Conditions: source organism: Escherichia coli 536.
A further assay deals with HLA-A*02:11. Described as above.
Another assay concerns the target HLA-A*68:02. The description is as above. Conditions: source organism: Escherichia coli 536.
In the next assay the target is HLA-B*18:01. The description is as above. As to conditions: source organism: Escherichia coli 536.
The target in another assay is HLA-B*46:01. The description is as above. Conditions: source organism: Escherichia coli 536.
For a further assay, the target named is HLA-A*26:01. The description is as above. As to conditions: source organism: Escherichia coli 536.
A further assay concerns the target HLA-A*03:01. The assay is described as above. As to conditions: source organism: Escherichia coli 536.
The target of assay [7] is HLA-B*57:01. The description is as above. Conditions: source organism: Escherichia coli 536.
Another assay addresses HLA-C*12:03. In words: IEDB peptide-MHC binding, purified MHC/direct/fluorescence; filed as Kd, often an IC50 or EC50 that approximates it; ≥ and ≤ were set here for values at or beyond the usual limits of such assays. Conditions: source organism: Human herpesvirus 4 strain B95-8.
The next assay has as its target HLA-C*03:03. Described as above.
Another assay has as its target HLA-B*35:01. In words: IEDB peptide-MHC binding, purified MHC/competitive/fluorescence; filed as Kd, often an IC50 or EC50 that approximates it; ≥ and ≤ were set here for values at or beyond the usual limits of such assays. Conditions: source organism: Mycobacterium tuberculosis C.
A further assay concerns the target HLA-B*07:02. In words: IEDB peptide-MHC binding, purified MHC/direct/fluorescence; filed as Kd, often an IC50 or EC50 that approximates it; ≥ and ≤ were set here for values at or beyond the usual limits of such assays. Conditions: source organism: Mycobacterium tuberculosis variant bovis BCG str. Pasteur 1173P2.
A further assay concerns the target HLA-A*02:06. In words: IEDB peptide-MHC binding, purified MHC/competitive/fluorescence; filed as Kd, often an IC50 or EC50 that approximates it; ≥ and ≤ were set here for values at or beyond the usual limits of such assays. As to conditions: source organism: Haemophilus influenzae R3021.
Assay [8] addresses HLA-A*02:01. The assay can be described thus: IEDB peptide-MHC binding, purified MHC/direct/fluorescence; filed as Kd, often an IC50 or EC50 that approximates it; ≥ and ≤ were set here for values at or beyond the usual limits of such assays. Conditions: source organism: Haemophilus influenzae.
The target of assay [9] is HLA-B*15:01. The assay is described as above. Conditions: source organism: Haemophilus influenzae.
The target of assay [10] is HLA-A*69:01. The description is as above. As to conditions: source organism: Haemophilus influenzae.
Another assay concerns the target HLA-A*01:01. Described as above. As to conditions: source organism: Haemophilus influenzae.
For the next assay, the target named is HLA-B*53:01. In words: IEDB peptide-MHC binding, purified MHC/competitive/fluorescence; ≥ and ≤ were set here for values at or beyond the usual limits of such assays. As to conditions: source organism: human gammaherpesvirus 4.
The target in the next assay is HLA-C*05:01. In words: IEDB peptide-MHC binding, purified MHC/direct/fluorescence; filed as Kd, often an IC50 or EC50 that approximates it; ≥ and ≤ were set here for values at or beyond the usual limits of such assays.
Setting [11] is: source organism: Yellow fever virus 1899/81.
The mark [12] stands for this setting: source organism: Escherichia coli 536.
The mark [13] stands for this setting: source organism: Salmonella enterica subsp. enterica serovar Typhi str. CT18.
The mark [14] stands for this setting: source organism: Mycobacterium tuberculosis C.
The mark [15] stands for this setting: source organism: Haemophilus influenzae R3021.
Setting [16] is: source organism: Haemophilus influenzae R2846.
[17] abbreviates: source organism: Escherichia coli O157:H7 str. EDL933.

Take HSNSEYLMF: the Kd with HLA-B*15:17 [1] stood at 1.1 nM; in the assay with HLA-B*58:01 it was 5.5 nM; with HLA-C*15:02 (source organism: Campylobacter jejuni), 93 nM; with HLA-B*57:01 [2], 134 nM.
Take REMHHLVEF: the Kd with HLA-B*83:01 (setting [11]), in the assay with HLA-C*04:01 (setting [11]), with HLA-B*15:42 (setting [11]) and with HLA-B*45:06 (setting [11]) was no less than 5000 nM each time.
For the sequence QTDNDIWFW, the Kd with HLA-A*02:12, with HLA-B*15:17 [3], with HLA-B*39:01, with HLA-B*51:01 (setting [12]), with HLA-A*02:01 [4] and with HLA-B*15:01 [5] (setting [12]) was no less than 20000 nM in each case. The Kd with HLA-A*23:01 (setting [12]), in the assay with HLA-A*02:16, in the assay with HLA-A*02:03 (setting [12]), with HLA-A*02:19, with HLA-B*27:03 and with HLA-A*29:02 was no less than 20000 nM in each case. Moreover, the equilibrium dissociation constant (Kd) with HLA-A*69:01 [6], with HLA-A*24:03, with HLA-A*02:11 (setting [12]), with HLA-A*68:02, with HLA-B*18:01 and in the assay with HLA-B*46:01 was no less than 20000 nM in each case. The Kd with HLA-A*26:01 is no less than 20000 nM; in the assay with HLA-A*03:01, no less than 20000 nM; in the assay with HLA-B*57:01 [7], 880 nM.
As for KAVETPILV, the equilibrium dissociation constant (Kd) with HLA-C*15:02 (source organism: Human herpesvirus 4 strain B95-8) is 51 nM; with HLA-C*12:03, no more than 1 nM.
For the sequence MMQTYTGAL, the values for the dissociation constant Kd with HLA-B*15:01 [5] (setting [13]) and with HLA-C*03:03 (setting [13]) were 64.9 nM and 119 nM, respectively.
As to WPVLGSEVL, the dissociation constant Kd with HLA-B*51:01 (setting [14]) was no less than 20000 nM; with HLA-B*35:01 it was no more than 0.1 nM; with HLA-B*07:02 it was 223 nM.
Consider RLYQYSFAK, for which the Kd in the assay with HLA-B*83:01 (setting [14]), with HLA-C*04:01 (setting [14]), in the assay with HLA-B*15:42 (setting [14]) and in the assay with HLA-B*45:06 (setting [14]) was no less than 5000 nM throughout.
The sequence VMLQIPFYK had a Kd with HLA-A*23:01 (source organism: Rickettsia bellii RML369-C) of 308 nM.
As for MLEEMQSAV, the Kd with HLA-A*02:03 (setting [15]) was 4.4 nM; with HLA-A*02:06 it was no more than 0.1 nM; in the assay with HLA-A*02:11 (setting [15]), no more than 0.1 nM; with HLA-A*02:01 [8] it was 71 nM; with HLA-B*15:01 [9] it was no less than 67200 nM; with HLA-A*69:01 [10], 2660 nM. This sequence showed an equilibrium dissociation constant (Kd) with HLA-A*01:01 of 2100 nM.
The sequence HPVLVTATL displayed a half-inhibitory concentration (IC50) with HLA-B*53:01 of 3910 nM.
For TSDEIYMTF, the Kd with HLA-C*15:02 (setting [16]) is no less than 20000 nM; in the assay with HLA-C*05:01 (setting [16]) it was 16 nM.
As to YVLNGYTEF, the results for the Kd with HLA-A*23:01 (setting [17]), in the assay with HLA-C*03:03 (setting [17]) and in the assay with HLA-C*05:01 (setting [17]) were no more than 1 nM, 60 nM and 37 nM, respectively.
On to MLNRYKLIY, for which the IC50 with HLA-B*53:01 was 170 nM.
Still for that read-out and setting: with MTAASYARY the figure was no less than 20000 nM.
